Results reported in FireProtDB (doi:10.1021/bi001900v).
Values joined by “and” are separate entries in the source; they are usually repeats but may differ in a detail not shown here. Identical values can stand only once.

Settings: Dickeya chrysanthemi, reversible: yes, whole UniProt chain shown; for Tm / unfolding enthalpy (calorimetric) / unfolding enthalpy (van 't Hoff): Thermal, DSC; for denaturant m value / denaturant midpoint (higher = more stable) / unfolding free energy: 25 °C, GdnHCl
[1] = pH 5, CD, Sodium phosphate 0.1 M, sodium chloride 150 mM
[2] = pH 5, CD, Sodium phosphate buffer, NaCl
[3] = pH 5, Fluorescence, Sodium phosphate 0.1 M, sodium chloride 150 mM
[4] = pH 5, fluorescence, Sodium phosphate buffer, NaCl
[5] = pH 7, CD, Sodium phosphate 0.1 M, sodium chloride 150 mM
[6] = pH 7, CD, Sodium phosphate buffer, NaCl
[7] = pH 7, Fluorescence, Sodium phosphate 0.1 M, sodium chloride 150 mM

B1: Pectate lyase C wild type, P11073 (protein)
chain: MKSLITPITAGLLLALSQPLLAATDTGGYAATAGGNVTGAVSKTATSMQDIVNIIDAARLDANGKKVKGGAYPLVITYTGNEDSLINAAAANICGQWSKDPRGVEIKEFTKGITIIGANGSSANFGIWIKKSSDVVVQNMRIGYLPGGAKDGDMIRVDDSPNVWVDHNELFAANHECDGTPDNDTTFESAVDIKGASNTVTVSYNYIHGVKKVGLDGSSSSDTGRNITYHHNYYNDVNARLPLQRGGLVHAYNNLYTNITGSGLNVRQNGQALIENNWFEKAINPVTSRYDGKNFGTWVLKGNNITKPADFSTYSITWTADTKPYVNADSWTSTGTFPTVAYNYSPVSAQCVKDKLPGYAGVGKNLATLTSTACK
- Tm (pH 4): 56.5 °C
- unfolding enthalpy (calorimetric) (pH 4): 256 kcal/mol
- unfolding enthalpy (van 't Hoff) (pH 4): 174 kcal/mol
- denaturant m value [1]: 15.7 kcal/mol/M
- denaturant midpoint (higher = more stable) [1]: 0.95 M
- unfolding free energy [1]: 14.9 kcal/mol
- denaturant m value [2]: 12.5 kcal/mol/M and 15.7 kcal/mol/M
- denaturant midpoint (higher = more stable) [2]: 0.97 M
- unfolding free energy [2]: 14.9 kcal/mol
- denaturant m value [3]: 14.5 kcal/mol/M
- denaturant midpoint (higher = more stable) [3]: 0.96 M
- unfolding free energy [3]: 14 kcal/mol
- denaturant m value [4]: 14.5 kcal/mol/M
- denaturant midpoint (higher = more stable) [4]: 0.96 M
- unfolding free energy [4]: 14 kcal/mol
- Tm (pH 5): 59.8 °C
- unfolding enthalpy (calorimetric) (pH 5): 270 kcal/mol
- unfolding enthalpy (van 't Hoff) (pH 5): 181 kcal/mol
- Tm (pH 6): 56.5 °C
- unfolding enthalpy (calorimetric) (pH 6): 255 kcal/mol
- unfolding enthalpy (van 't Hoff) (pH 6): 203 kcal/mol
- denaturant m value [5]: 12.2 kcal/mol/M and 11.8 kcal/mol/M
- denaturant midpoint (higher = more stable) [5]: 0.99 M and 0.98 M
- unfolding free energy [5]: 12.1 kcal/mol and 11.6 kcal/mol
- denaturant m value [6]: 12.2 kcal/mol/M and 11.8 kcal/mol/M
- denaturant midpoint (higher = more stable) [6]: 0.99 M and 0.98 M
- unfolding free energy [6]: 12.1 kcal/mol and 11.6 kcal/mol
- denaturant m value [7]: 13 kcal/mol/M
- denaturant midpoint (higher = more stable) [7]: 1 M
- unfolding free energy [7]: 13 kcal/mol
- Tm (pH 7): 51.2 °C
- unfolding enthalpy (calorimetric) (pH 7): 240 kcal/mol
- unfolding enthalpy (van 't Hoff) (pH 7): 219 kcal/mol
- Tm (pH 8): 46.5 °C
- unfolding enthalpy (calorimetric) (pH 8): 235 kcal/mol
- unfolding enthalpy (van 't Hoff) (pH 8): 201 kcal/mol
